Experimental data from patent US20140120128A1.

Assays:
Experiment in all cases: cell-based or functional assay
[1] = biological target: human TLR5 expressed on HEK293 cells (human) (UniProt O60602)
[2] = biological target: human TLR2 expressed on HEK293 cells (human) (UniProt O60603)
[3] = biological target: human TLR3 expressed on HEK293 cells (human) (UniProt O15455)
[4] = biological target: T1, human TLR8 expressed on HEK293 cells (human) (UniProt Q9NR97)
T1 sequence: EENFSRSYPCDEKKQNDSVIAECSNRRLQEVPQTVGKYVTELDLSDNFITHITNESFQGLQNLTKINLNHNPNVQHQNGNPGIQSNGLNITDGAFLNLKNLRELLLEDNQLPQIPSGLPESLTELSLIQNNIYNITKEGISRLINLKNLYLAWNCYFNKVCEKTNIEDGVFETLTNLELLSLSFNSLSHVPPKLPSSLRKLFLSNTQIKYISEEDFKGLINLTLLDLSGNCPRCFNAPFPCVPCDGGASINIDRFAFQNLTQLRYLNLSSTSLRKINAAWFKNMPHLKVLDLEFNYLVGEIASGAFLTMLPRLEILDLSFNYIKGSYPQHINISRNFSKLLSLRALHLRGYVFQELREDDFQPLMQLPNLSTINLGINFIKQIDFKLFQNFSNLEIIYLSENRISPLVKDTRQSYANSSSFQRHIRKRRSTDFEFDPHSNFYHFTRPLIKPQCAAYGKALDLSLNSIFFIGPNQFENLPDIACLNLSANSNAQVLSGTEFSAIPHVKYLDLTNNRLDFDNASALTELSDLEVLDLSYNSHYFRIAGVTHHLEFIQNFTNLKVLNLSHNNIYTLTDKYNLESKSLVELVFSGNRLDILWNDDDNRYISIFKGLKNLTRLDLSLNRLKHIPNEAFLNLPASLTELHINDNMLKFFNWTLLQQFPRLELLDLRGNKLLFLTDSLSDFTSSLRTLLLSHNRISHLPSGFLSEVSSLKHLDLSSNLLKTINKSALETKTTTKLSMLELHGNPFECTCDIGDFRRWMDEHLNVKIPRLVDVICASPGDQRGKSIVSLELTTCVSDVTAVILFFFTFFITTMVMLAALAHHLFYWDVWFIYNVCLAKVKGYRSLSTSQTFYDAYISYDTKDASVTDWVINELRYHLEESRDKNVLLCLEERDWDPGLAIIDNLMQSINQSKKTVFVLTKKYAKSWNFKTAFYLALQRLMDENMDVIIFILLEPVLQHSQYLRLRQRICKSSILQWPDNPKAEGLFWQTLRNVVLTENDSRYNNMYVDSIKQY

[5] = biological target: T2, human TLR9 expressed on HEK293 cells (human) (UniProt Q9NR96)
T2 sequence: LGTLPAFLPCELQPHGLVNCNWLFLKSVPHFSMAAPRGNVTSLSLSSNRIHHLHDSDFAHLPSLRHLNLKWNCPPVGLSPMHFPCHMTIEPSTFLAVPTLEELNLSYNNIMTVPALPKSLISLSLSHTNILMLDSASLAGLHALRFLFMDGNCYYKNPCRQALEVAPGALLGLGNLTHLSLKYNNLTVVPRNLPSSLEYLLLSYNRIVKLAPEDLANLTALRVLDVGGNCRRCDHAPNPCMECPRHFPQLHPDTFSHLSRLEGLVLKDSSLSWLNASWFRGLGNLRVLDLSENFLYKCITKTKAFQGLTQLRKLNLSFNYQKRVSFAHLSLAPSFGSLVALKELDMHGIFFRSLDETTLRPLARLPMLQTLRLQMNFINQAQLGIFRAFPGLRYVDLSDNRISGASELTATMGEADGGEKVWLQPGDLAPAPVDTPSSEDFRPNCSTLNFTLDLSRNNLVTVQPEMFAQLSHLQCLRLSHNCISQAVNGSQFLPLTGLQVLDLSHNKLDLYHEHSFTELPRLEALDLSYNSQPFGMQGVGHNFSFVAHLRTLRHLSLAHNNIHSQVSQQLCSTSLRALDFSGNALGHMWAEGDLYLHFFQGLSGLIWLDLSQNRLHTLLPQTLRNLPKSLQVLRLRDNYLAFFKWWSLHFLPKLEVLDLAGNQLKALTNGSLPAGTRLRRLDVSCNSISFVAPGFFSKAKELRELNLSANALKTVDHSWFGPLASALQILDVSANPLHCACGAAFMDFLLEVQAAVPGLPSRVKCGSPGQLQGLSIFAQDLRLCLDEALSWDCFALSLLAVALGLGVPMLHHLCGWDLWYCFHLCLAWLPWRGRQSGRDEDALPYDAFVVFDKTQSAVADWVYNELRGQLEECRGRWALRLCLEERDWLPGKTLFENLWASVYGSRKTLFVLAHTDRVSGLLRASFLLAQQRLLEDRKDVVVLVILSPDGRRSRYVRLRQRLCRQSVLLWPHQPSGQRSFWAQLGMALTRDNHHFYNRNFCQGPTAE

[6] = biological target: T3, human TLR7 expressed on HEK293 cells (human) (UniProt Q9NYK1)
T3 sequence: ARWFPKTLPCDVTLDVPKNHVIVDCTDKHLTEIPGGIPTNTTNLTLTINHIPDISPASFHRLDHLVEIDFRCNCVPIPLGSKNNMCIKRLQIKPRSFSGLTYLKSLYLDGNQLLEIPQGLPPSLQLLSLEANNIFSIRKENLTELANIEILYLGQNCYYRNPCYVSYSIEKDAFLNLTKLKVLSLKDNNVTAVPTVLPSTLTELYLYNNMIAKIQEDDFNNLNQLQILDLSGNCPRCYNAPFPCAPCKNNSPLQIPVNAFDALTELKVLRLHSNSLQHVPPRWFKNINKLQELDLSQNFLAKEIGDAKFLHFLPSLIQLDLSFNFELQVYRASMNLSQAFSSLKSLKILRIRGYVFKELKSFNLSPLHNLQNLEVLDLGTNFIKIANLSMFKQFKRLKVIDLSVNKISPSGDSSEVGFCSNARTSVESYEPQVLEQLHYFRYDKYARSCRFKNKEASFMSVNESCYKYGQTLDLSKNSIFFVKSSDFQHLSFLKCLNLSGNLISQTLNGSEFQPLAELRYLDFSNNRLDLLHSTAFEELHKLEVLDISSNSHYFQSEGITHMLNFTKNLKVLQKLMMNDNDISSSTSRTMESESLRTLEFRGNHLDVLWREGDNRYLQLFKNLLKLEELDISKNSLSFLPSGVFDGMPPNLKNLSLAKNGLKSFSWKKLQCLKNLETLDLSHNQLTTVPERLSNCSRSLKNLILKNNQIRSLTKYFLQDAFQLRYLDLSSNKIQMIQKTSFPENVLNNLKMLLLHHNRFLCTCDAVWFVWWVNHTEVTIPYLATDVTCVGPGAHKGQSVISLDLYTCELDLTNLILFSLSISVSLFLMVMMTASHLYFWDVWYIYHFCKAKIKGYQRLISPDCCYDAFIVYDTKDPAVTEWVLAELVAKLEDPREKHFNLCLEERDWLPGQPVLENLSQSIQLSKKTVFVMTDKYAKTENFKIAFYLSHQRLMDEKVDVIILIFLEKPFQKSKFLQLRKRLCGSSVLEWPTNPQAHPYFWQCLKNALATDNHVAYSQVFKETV

[7] = biological target: human TLR4 (MD2-CD14) expressed on HEK293 cells (human) (UniProt O00206)
Sequence of human TLR4 (MD2-CD14) expressed on HEK293 cells (human) (O00206 24-839 limits assumed, chain 1 of 3): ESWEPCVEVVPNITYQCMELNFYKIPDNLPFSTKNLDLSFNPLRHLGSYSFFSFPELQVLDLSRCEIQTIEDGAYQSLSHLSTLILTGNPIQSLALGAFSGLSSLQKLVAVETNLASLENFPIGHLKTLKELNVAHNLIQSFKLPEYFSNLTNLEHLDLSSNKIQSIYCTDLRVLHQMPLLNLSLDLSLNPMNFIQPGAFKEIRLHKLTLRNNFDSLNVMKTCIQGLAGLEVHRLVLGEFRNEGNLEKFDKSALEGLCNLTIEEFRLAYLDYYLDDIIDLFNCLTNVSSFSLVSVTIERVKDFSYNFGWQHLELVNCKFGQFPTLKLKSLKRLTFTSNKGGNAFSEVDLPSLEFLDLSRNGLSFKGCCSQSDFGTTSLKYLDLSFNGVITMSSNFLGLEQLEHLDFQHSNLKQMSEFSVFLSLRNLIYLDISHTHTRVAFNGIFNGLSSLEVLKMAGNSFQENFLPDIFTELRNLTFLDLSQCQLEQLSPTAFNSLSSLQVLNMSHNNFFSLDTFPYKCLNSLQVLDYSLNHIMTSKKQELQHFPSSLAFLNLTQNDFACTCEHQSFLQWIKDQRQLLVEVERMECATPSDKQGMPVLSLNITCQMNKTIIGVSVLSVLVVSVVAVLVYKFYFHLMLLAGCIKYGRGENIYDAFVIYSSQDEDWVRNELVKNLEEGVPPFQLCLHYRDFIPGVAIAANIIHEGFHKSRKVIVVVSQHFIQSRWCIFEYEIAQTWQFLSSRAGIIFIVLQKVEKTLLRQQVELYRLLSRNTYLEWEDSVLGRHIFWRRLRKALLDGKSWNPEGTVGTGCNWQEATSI
Sequence of human TLR4 (MD2-CD14) expressed on HEK293 cells (human) (Q9Y6Y9 19-160 limits assumed, chain 2 of 3, further chain): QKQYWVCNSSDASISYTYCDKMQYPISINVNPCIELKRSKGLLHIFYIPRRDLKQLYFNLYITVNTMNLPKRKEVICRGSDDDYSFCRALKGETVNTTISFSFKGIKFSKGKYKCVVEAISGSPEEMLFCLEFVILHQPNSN
Sequence of human TLR4 (MD2-CD14) expressed on HEK293 cells (human) (P08571 20-345 limits assumed, chain 3 of 3, further chain): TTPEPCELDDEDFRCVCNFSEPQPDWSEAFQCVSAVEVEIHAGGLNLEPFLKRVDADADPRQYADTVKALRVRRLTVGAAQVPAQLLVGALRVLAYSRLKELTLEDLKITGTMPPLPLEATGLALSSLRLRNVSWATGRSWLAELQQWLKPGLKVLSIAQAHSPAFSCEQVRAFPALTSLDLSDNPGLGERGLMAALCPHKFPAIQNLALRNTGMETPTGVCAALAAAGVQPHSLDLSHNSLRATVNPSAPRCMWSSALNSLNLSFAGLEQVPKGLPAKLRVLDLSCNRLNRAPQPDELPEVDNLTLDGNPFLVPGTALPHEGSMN

Sequence of human TLR2 expressed on HEK293 cells (human) (O60603 21-784): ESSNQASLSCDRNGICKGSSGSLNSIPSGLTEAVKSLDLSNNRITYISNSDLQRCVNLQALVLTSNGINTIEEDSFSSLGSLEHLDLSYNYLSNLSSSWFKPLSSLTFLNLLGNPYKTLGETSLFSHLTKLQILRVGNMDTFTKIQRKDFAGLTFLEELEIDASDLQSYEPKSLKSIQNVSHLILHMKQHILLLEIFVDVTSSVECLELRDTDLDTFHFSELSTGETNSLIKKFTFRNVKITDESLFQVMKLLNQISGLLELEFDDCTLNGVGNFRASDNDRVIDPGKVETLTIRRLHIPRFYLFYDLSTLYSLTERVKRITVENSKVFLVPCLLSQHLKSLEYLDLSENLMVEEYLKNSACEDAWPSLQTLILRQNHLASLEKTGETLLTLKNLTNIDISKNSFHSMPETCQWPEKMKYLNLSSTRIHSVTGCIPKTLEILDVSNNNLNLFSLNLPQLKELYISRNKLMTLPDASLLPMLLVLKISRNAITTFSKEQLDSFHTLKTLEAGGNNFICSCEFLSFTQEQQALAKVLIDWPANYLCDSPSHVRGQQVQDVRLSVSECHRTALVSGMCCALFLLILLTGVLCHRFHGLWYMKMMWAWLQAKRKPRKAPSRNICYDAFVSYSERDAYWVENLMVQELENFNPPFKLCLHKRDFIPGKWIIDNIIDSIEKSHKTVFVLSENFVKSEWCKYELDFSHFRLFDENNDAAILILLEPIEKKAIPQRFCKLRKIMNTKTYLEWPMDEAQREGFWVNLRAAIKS
Sequence of human TLR5 expressed on HEK293 cells (human) (O60602 21-858): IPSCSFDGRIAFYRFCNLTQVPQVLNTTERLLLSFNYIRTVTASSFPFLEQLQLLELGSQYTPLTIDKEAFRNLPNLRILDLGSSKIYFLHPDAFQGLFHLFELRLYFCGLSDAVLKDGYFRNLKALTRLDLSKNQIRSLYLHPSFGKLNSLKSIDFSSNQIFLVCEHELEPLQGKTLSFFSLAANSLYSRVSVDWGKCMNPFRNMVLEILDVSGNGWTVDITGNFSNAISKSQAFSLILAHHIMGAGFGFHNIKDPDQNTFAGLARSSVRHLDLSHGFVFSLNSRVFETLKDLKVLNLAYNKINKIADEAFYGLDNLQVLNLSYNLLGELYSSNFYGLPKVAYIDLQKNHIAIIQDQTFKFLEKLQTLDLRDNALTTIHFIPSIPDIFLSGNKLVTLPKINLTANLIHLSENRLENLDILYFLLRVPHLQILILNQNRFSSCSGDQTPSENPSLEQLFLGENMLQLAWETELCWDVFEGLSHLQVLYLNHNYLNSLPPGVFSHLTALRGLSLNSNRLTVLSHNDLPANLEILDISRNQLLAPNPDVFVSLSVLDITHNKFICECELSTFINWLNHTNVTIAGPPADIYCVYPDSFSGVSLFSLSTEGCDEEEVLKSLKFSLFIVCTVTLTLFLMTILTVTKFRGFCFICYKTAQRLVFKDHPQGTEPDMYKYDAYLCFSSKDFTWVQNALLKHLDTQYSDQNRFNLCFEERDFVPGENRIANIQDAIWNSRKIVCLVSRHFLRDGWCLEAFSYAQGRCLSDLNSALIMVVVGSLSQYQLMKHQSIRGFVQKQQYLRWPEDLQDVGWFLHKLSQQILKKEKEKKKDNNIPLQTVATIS

B1: truncated YscF (protein)
chain: LKKPADDANKAVNDSIAALKDKPDNPALLADLQHSINKWSVIYNINSTIVRSMKDLMQGILQKFP
Binder B1 has an SEAP reporter expression in HEK293 cells, screening 1 [1] of 0.15, an SEAP reporter expression in HEK293 cells, screening 2 [1] of 0.154 and an SEAP reporter expression in HEK293 cells, screening 1 [2] of 2.02. It also gave an SEAP reporter expression in HEK293 cells, screening 2 [2] of 1.98, an SEAP reporter expression in HEK293 cells, screening 1 [3] of 0.097 and an SEAP reporter expression in HEK293 cells, screening 2 [3] of 0.101. It also gave an SEAP reporter expression in HEK293 cells, screening 1 [4] of 0.099, an SEAP reporter expression in HEK293 cells, screening 2 [4] of 0.105 and an SEAP reporter expression in HEK293 cells, screening 1 [5] of 0.079. The SEAP reporter expression in HEK293 cells, screening 2 [5] was 0.079, the SEAP reporter expression in HEK293 cells, screening 1 [6] was 0.091 and the SEAP reporter expression in HEK293 cells, screening 2 [6] was 0.097. For the same binder, the SEAP reporter expression in HEK293 cells, screening 1 [7] was 2 and the SEAP reporter expression in HEK293 cells, screening 2 [7] was 1.9.
